In patent US20230285514A1, “STAPLED LACTAM CO-AGONISTS OF THE GLUCAGON AND GLP-1 RECEPTORS” (Merck Sharp & Dohme LLC, priority 2019, published 2023):
*1 amine or outer side, *2 acyl side, *3 side chain or, on linkers, in order; H or OH if unused. Where a SMILES comes first, the peptide text is derived from it. Bridges are numbered along the chain shown (N, C = ends). Where no end group is shown, it is not given here. Side-chain parts run from the residue outwards. [ ]: non-standard residue; d: D form. The star is where a group is joined. γGlu = O=C(O)[C@H](CCC(=O)[*:2])N[*:1]; Met(O2) = CS(=O)(=O)CC[C@H](N)C(=O)O; Palmitoyl = CCCCCCCCCCCCCCCC(=O)*; Nle = CCCC[C@H](N)C(=O)O; Ac4c = NC1(C(=O)O)CCC1; Aib = CC(C)(N)C(=O)O

What was measured:
human GCGR = biological target: T1, human GCGR (Homo sapiens, UniProt P47871); assay: cAMP activity assay, cells expressing human GCGR; type: cell-based; conditions: ratio of human GCGR EC50 to human GLP1R EC50
T1 construct: expressed in transfected cells
Description: Activity of the peptides at the Glucagon receptor (GCGR) and GLP-1 receptor (GLP1R) was measured in a cAMP activity assay. Peptides were dissolved in 100% DMSO and serially diluted to generate 10 point titrations. The peptide solutions were then transferred into 384-well assay plates (150 nL/well). Assay ready frozen cells expressing human GLP1R or human GCGR were suspended in growth media consisting of DMEM medium (GIBCO), 10% FBS (GIBCO), 1×NEAA(GIBCO), 1×P/S (GIBCO), 10 ug/ml Blasticidin (GIBCO) and 200 μg/mL Hygromycin (GIBCO). […] The cell suspensions (15 μL) were then added to the assay plates containing the peptide solutions (30,000 cells/well for human GCGR; 10,000 cells/well for human GLP1R). […] Production of cAMP was determined using […] kits (DiscoverX) following manufacturer protocol. The plates were incubated for overnight at room temperature in the dark. Luminescence was measured using an EnVision Multilabel plate reader (Perkin Elmer). Native GLP-1 and Glucagon (Bachem) are used as control peptides.

[1] = biological target: human Glucagon receptor (GCGR) (human, UniProt P47871); assay: cell-based or functional assay
[2] = biological target: human GLP-1 receptor (GLP1R) (human, UniProt P43220); assay: cell-based or functional assay

T1 sequence (P47871 26-477): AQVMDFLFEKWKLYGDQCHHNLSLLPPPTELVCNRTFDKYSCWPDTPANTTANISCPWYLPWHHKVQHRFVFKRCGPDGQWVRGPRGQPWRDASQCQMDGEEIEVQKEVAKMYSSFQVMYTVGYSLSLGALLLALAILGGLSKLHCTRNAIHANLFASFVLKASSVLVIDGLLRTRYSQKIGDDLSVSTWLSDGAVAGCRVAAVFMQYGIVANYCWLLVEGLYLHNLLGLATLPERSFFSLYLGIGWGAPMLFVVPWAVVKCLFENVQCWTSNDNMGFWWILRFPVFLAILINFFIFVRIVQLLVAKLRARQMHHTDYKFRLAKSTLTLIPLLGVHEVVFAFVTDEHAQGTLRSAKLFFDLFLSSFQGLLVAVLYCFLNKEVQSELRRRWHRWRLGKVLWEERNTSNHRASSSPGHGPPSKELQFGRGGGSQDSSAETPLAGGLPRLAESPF

## CCCCCCCCCCCCCCCC(=O)N[C@@H](CCC(=O)N[C@@H](CCC(=O)NCCCC[C@H](NC(=O)[C@H](CC(=O)O)NC(=O)[C@H](CO)NC(=O)[C@@H](NC(=O)[C@H](Cc1ccccc1)NC(=O)[C@@H](NC(=O)CNC(=O)[C@H](CCC(N)=O)NC(=O)[C@@H](CO)NC(=O)[C@@H](N)Cc1c[nH]cn1)[C@@H](C)O)[C@@H](C)O)C(=O)N[C@@H](CO)C(=O)N[C@@H](CCCCN)C(=O)N[C@@H](Cc1ccc(O)cc1)C(=O)N[C@@H](CC(C)C)C(=O)N[C@@H](CC(=O)O)C(=O)N[C@@H](C)C(=O)N[C@@H](CCCNC(=N)N)C(=O)N[C@@H](C)C(=O)N[C@@H](C)C(=O)N[C@@H](CCC(N)=O)C(=O)N[C@@H](CC(=O)O)C(=O)N[C@@H](Cc1ccccc1)C(=O)N[C@H](C(=O)N[C@H]1CCCCNC(=O)CC[C@@H](C(=O)N[C@H](C(N)=O)[C@@H](C)O)NC(=O)[C@H](CC(C)C)NC(=O)[C@H](CC(C)C)NC(=O)[C@H](Cc2c[nH]c3ccccc23)NC1=O)C(C)C)C(=O)O)C(=O)O [SEQ ID NO: 13] (H-H[dS]QGTFTSDK([γGlu-γGlu-Palmitoyl])SKYLDARAAQDFVKWLLET-NH2; lactam 24-28; N-terminus assumed)
Human GCGR
  hGCGR/hGLPIR (hTone): 0.56

B1: TP834 (peptide)
peptide: H[dS]QGTFTSDKSKYLDARAAQDFVKWLLET-NH2
modifications: lactam 24-28; not fully specified (residue 10); printed as HsQGTFTSDK(γEγEC16)SKYLDARAAQDFVK*WLLE*T-NH2
[1]
  GCGR EC50 human (nM), cAMP activity assay: 0.077 nM
[2]
  GLP1R EC50 human (nM), cAMP activity assay: 0.137 nM

B2: Peptide SEQ ID No. 10 (TP706) (peptide)
peptide: H[dS]QGTFTSDKSKYLDKRAAEDFVQWLLDT-NH2
modifications: lactam 16-20; not fully specified (residue 10); printed as HsQGTFTSDK(γEγEC16)SKYLDK*RAAE*DFVQWLLDT-NH2
[1]
  GCGR EC50 human (nM), cAMP activity assay: 0.089 nM
[2]
  GLP1R EC50 human (nM), cAMP activity assay: 0.107 nM

B3: TP844 (peptide)
peptide: H[Aib]QGTFTSDKSKYLDKRAAEDFVQWL[Met(O2)]DTK(γGlu)-NH2
modifications: lactam 16-20; not fully specified (residue 10); printed as HUQGTFTSDK(γEγEC16)SKYLDK*RAAE*DFVQWL2DTKγE-NH2
[1]
  GCGR EC50 human (nM), cAMP activity assay: 0.046 nM
[2]
  GLP1R EC50 human (nM), cAMP activity assay: 0.022 nM

B4: TP484 (peptide)
peptide: HXQGTFTSDXSKYLDERAAEDFVKWLLDT
modifications: s = D-Serine at 2; K10 conjugated to γEγE-C16 fatty acid; E*20 and K*24 cyclized to form a lactam containing ring; C-terminal amide
[1]
  GCGR EC50 human (nM), cAMP activity assay: 0.04 nM
[2]
  GLP1R EC50 human (nM), cAMP activity assay: 0.12 nM

B5: TP848 (peptide)
peptide: H[Aib]QGTFTSDKSKYLD[Aib]KAAQEFVQWL[Met(O2)]DTK(γGlu)-NH2
modifications: lactam 17-21; not fully specified (residue 10); printed as HUQGTFTSDK(γEγEC16)SKYLDUK*AAQE*FVQWL2DTKγE-NH2
[1]
  GCGR EC50 human (nM), cAMP activity assay: 0.079 nM
[2]
  GLP1R EC50 human (nM), cAMP activity assay: 0.044 nM

## H[Aib]QGTFTSDKSKYLD[Ac4c]RAAKDFVEWL[Met(O2)]DTK(γGlu)-NH2 (lactam 20-24; not fully specified (residue 10)) [TP859]
[1]
  GCGR EC50 human (nM), cAMP activity assay: 0.108 nM
[2]
  GLP1R EC50 human (nM), cAMP activity assay: 0.043 nM

B6: TP846 (peptide)
peptide: H[Aib]QGTFTSDKSKYLD[Aib]RAAKDFVEWL[Met(O2)]DTK(γGlu)-NH2
modifications: lactam 20-24; not fully specified (residue 10); printed as HUQGTFTSDK(γEγEC16)SKYLDURAAK*DFVE*WL2DTKγE-NH2
[1]
  GCGR EC50 human (nM), cAMP activity assay: 0.176 nM
[2]
  GLP1R EC50 human (nM), cAMP activity assay: 0.147 nM

## H[Aib]QGTFTSDKSKYLD[Ac4c]KAAQEFVQWL[Met(O2)]DTK(γGlu)-NH2 (lactam 17-21; not fully specified (residue 10)) [TP857]
[1]
  GCGR EC50 human (nM), cAMP activity assay: 0.092 nM
[2]
  GLP1R EC50 human (nM), cAMP activity assay: 0.038 nM

B7: TP486 (peptide)
peptide: H[Aib]QGTFTSDKSKYLD[Aib]RAAQDFVEWLMKTK(γGlu)-NH2
modifications: lactam 24-28; not fully specified (residue 10); printed as HUQGTFTSDK(γEγEC16)SKYLDURAAQDFVE*WLMK*TKγE-NH2
[1]
  GCGR EC50 human (nM), cAMP activity assay: 0.06 nM
[2]
  GLP1R EC50 human (nM), cAMP activity assay: 0.29 nM

## H[Aib]QGTFTSDKSKYLD[Ac4c]RAAQDFVKWL[Met(O2)]ETK(γGlu)-NH2 (lactam 24-28; not fully specified (residue 10)) [TP861]
[1]
  GCGR EC50 human (nM), cAMP activity assay: 0.928 nM
[2]
  GLP1R EC50 human (nM), cAMP activity assay: 0.056 nM

B8: TP850 (peptide)
peptide: H[Aib]QGTFTSDKSKYLD[Aib]RAAQDFVKWL[Met(O2)]ETK(γGlu)-NH2
modifications: lactam 24-28; not fully specified (residue 10); printed as HUQGTFTSDK(γEγEC16)SKYLDURAAQDFVK*WL2E*TKγE-NH2
[1]
  GCGR EC50 human (nM), cAMP activity assay: 0.034 nM
[2]
  GLP1R EC50 human (nM), cAMP activity assay: 0.033 nM

B9: TP710 (peptide)
peptide: H[dS]QGTFTSDKSKYLDAKAAQEFVQWLLDT-NH2
modifications: lactam 17-21; not fully specified (residue 10); printed as HsQGTFTSDK(γEγEC16)SKYLDAK*AAQE*FVQWLLDT-NH2
[1]
  GCGR EC50 human (nM), cAMP activity assay: 0.06 nM
[2]
  GLP1R EC50 human (nM), cAMP activity assay: 0.07 nM

B10: TP840 (peptide)
peptide: H[Aib]QGTFTSDKSKYLD[Aib]KAAQEFVQWL[Nle]DT-NH2
modifications: lactam 17-21; not fully specified (residue 10); printed as HUQGTFTSDK(γEγEC16)SKYLDUK*AAQE*FVQWL-Nle-DT-NH2
[1]
  GCGR EC50 human (nM), cAMP activity assay: 0.212 nM
[2]
  GLP1R EC50 human (nM), cAMP activity assay: 0.17 nM

B11: TP842 (peptide)
peptide: H[Aib]QGTFTSDKSKYLD[Aib]RAAQDFVKWL[Nle]ET-NH2
modifications: lactam 24-28; not fully specified (residue 10); printed as HUQGTFTSDK(γEγEC16)SKYLDURAAQDFVK*WL-Nle-E*T-NH2
[1]
  GCGR EC50 human (nM), cAMP activity assay: 0.248 nM
[2]
  GLP1R EC50 human (nM), cAMP activity assay: 0.237 nM

B12: TP707 (peptide)
peptide: H[dS]QGTFTSDKSKYLDARAAKDFVEWLLDT-NH2
modifications: lactam 20-24; not fully specified (residue 10); printed as HsQGTFTSDK(γEγEC16)SKYLDARAAK*DFVE*WLLDT-NH2
[1]
  GCGR EC50 human (nM), cAMP activity assay: 0.1 nM
[2]
  GLP1R EC50 human (nM), cAMP activity assay: 0.17 nM

B13: TP836 (peptide)
peptide: H[Aib]QGTFTSDKSKYLDKRAAEDFVQWL[Nle]DT-NH2
modifications: lactam 16-20; not fully specified (residue 10); printed as HUQGTFTSDK(γEγEC16)SKYLDK*RAAE*DFVQWL-Nle-DT-NH2
[1]
  GCGR EC50 human (nM), cAMP activity assay: 0.281 nM
[2]
  GLP1R EC50 human (nM), cAMP activity assay: 0.198 nM

B14: TP485 (peptide)
peptide: H[dS]QGTFTSDKSKYLDERAAKDFVEWLLDT-NH2
modifications: lactam 20-24; not fully specified (residue 10); printed as HsQGTFTSDK(γEγEC16)SKYLDERAAK*DFVE*WLLDT-NH2
[1]
  GCGR EC50 human (nM), cAMP activity assay: 0.05 nM
[2]
  GLP1R EC50 human (nM), cAMP activity assay: 0.14 nM

## H[dS]QGTFTSEK([γGlu-γGlu-C16 fatty acid])SKKLD[Aib]RAAQDFVQWLLATK(γGlu)-NH2 (lactam 9-13) [TP115]
[1]
  GCGR EC50 human (nM), cAMP activity assay: 0.81 nM
[2]
  GLP1R EC50 human (nM), cAMP activity assay: 1.03 nM

B15: TP838 (peptide)
peptide: H[Aib]QGTFTSDKSKYLD[Aib]RAAKDFVEWL[Nle]DT-NH2
modifications: lactam 20-24; not fully specified (residue 10); printed as HUQGTFTSDK(γEγEC16)SKYLDURAAK*DFVE*WL-Nle-DT-NH2
[1]
  GCGR EC50 human (nM), cAMP activity assay: 0.675 nM
[2]
  GLP1R EC50 human (nM), cAMP activity assay: 0.259 nM
